We go through 167 variants from the RNAGym collection of RNA variant scans (doi:10.7554/elife.90254).

B1: LINE1-full (parent)
chain: UACGUAGGUGGUUUUCCCCUGAUAGUGCUAAGGGGGCCUGGAAGUUUGGACUGGGCAGAGCUCAACACAGCGUGGCAAAGUGGCUGUGGCUAGACUGCCUCUCUGGAUUCCUCGUCACUCAGCAGGGCAUCUCUGAGAGAAAUGCC

The variants in this data set derive from B1. Put plainly: self-cleavage, relative activity (ratio to wild type); higher = more cleavage; in vitro, sequencing; the parent is a self-cleaving ribozyme.
Take A65G G127C: the self-cleavage was determined as 0.06.
As for A65G G127U, the figure is 0.04; as for A65G U119C, 0.04.
Consider A65G U119G, for which the self-cleavage was 0.
Take A65C G105U: the self-cleavage is 0.03.
For A64G G93A the value was 0.04; for A64G U112C, 0.28; for A64G U112G, 0.
As for A64G A94G, the figure is 0.06; as for A64G A94U, 0.08; as for A65U A121U, 0.24.
As for A65G U100C, the figure is 0.06; as for A65G U100A, 0.09.
For C66U A69G, the self-cleavage stood at 0.06.
Regarding A64G U102C, the self-cleavage came to 0.34.
As for A64U A141C, the figure is 0.46.
As for A65G U81A, the figure is 0.06; as for A64U A79U, 0.64; as for A64U C111A, 0.35.
Consider A67G U134C, for which the self-cleavage stood at 0.56.
For A65G A94G the value was 0.03; for A64G G82A, 0.19; for A67G U81C, 0.35.
As for A67G A77U, the figure is 0.3.
A65U G127A: the self-cleavage came to 0.68.
As for A64U A94U, the figure is 0.26; as for A64U G80U, 0.47; as for A64G A124U, 0.29.
Turning to A67G G122A, the self-cleavage amounted to 0.54.
For A64G A77G the value was 0.42; for A64G A77U, 0.23.
For A67G A124U the value was 0.49; for A67C A117C, 0.03; for A64G G114U, 0.24.
As for A65G G135A, the figure is 0.1; as for A65U U108C, 0.4; as for A65G A141C, 0.38.
As to A67G U115G, the self-cleavage worked out at 1.22.
Turning to A67G U115A, the self-cleavage amounted to 0.61.
For A67G U115C the value was 0.55; for C66U U102A, 0.06.
For the variant A65C A124G, the self-cleavage stood at 0.1.
Regarding A64G A65G, the self-cleavage was 0.11.
As for A64U C68A, the figure is 0.01.
As for A64C U100C, the figure is 0.62; as for A67G A136C, 0.38.
For A67G A136U the value was 0.4.
Consider A67G A136G, for which the self-cleavage is 0.67.
For A67C A136G the value was 0.12; for C66U A142G, 0.05.
For C66U A136G the value was 0.04; for A65U G125A, 0.21; for A65U C76U, 0.22.
For the variant A64U G125A, the self-cleavage is 0.34.
For A64U G125U the value was 0.41.
As for A64G G88C, the figure is 0.04.
A65G C133U: the self-cleavage came out at 0.04.
For A65G U87A the value was 0.06.
As for A65G U87C, the figure is 0.16.
Turning to A64U U112A, the self-cleavage is 0.47.
For A65G U132C the value was 0.07; for A67G U87A, 0.12; for A64U U104C, 0.62.
As for A67G U132C, the figure is 0.62.
For A64G G89U the value was 0.
On to C66U U85C, for which the self-cleavage was 0.02.
For A65C A79G the value was 0; for A64U U108C, 0.65.
For A65U A129U the value was 0.18; for A65U A129G, 0.38.
For A65G A69G the value was 0.
In the case of A65G A69C, the self-cleavage worked out at 0.
As for A65G A69U, the figure is 0.07; as for A65G C90U, 0.03; as for A64G G137A, 0.21.
As for A64G A107C, the figure is 0.12.
For A64U U91C the value was 0.18; for A64G, 0.25; for A64U, 0.41.
In the case of A64G U132C, the self-cleavage was determined as 0.39.
As for A64G U132A, the figure is 0.34; as for A67C U96C, 0.12.
For A64U U87A the value was 0.06.
For A64U U87G the value was 0.11; for A67G G137A, 0.64; for A65U A124G, 0.09.
Consider A65U A124U, for which the self-cleavage worked out at 0.18.
As for A64U G127C, the figure is 0.6.
As for A65G A129C, the figure is 0.02; as for A65G C111U, 0.06; as for C66A A136G, 0.04.
For A67G U130A the value was 0.54; for A67G U130C, 0.65; for A64U A117G, 0.53.
For the variant A65G G144U, the self-cleavage amounted to 0.06.
For A67G G74A the value was 0.45; for C66U U100C, 0.07.
As for A65G A77G, the self-cleavage came to 0.04.
For A67C U115A the value was 0.04.
As for A67G A94G, the figure is 0.09; as for A64C U104A, 0.28; as for A65G U96C, 0.08.
For A64G G80A the value was 0.39; for A67C U102C, 0.04; for A65G A124G, 0.07.
A65G A124U: the self-cleavage was 0.04.
As for A67C C123A, the figure is 0.07; as for A65C G97A, 0.04; as for A65U U96C, 0.02.
As for A64U U102C, the figure is 0.34; as for A67G U104C, 0.96; as for A65U G82U, 0.15.
As for A67G A129U, the figure is 0.04.
In the case of A67G A129G, the self-cleavage was 0.45.
With A65G A121C, the self-cleavage worked out at 0.07.
As for A65G A121U, the figure is 0.04; as for A67G G126A, 0.58; as for A64U A129G, 0.66.
For A64U A129U the value was 0.46.
For A65U A141G the value was 0.18; for A64G U73G, 0.15; for A67G U109C, 0.16.
With A65U A92G, the self-cleavage turned out to be 0.03.
With A67G U102A, the self-cleavage amounted to 0.99.
For A67G U102C the value was 0.58; for A65G U115A, 0.04; for A65G U115C, 0.05.
For A64G C133U the value was 0.06; for A64U G72C, 0.25; for C66U U109A, 0.03.
As for A65G C116U, the figure is 0.05; as for A65G G126A, 0.02.
For the variant A65G A138G, the self-cleavage was 0.06.
For A67G G114A the value was 0.38; for A67G G114C, 0.49; for A65G C110U, 0.07.
Take A64G A78G: the self-cleavage is 0.25.
For A67G C68A the value was 0.05; for C66U U130C, 0.05; for A64G U119C, 0.32.
As for A65U U81C, the figure is 0.19; as for A67G A141G, 0.38; as for A65U A142G, 0.19.
For A64U C116A the value was 0.37.
In the case of A65U U119A, the self-cleavage is 0.21.
For A64U A138G the value was 0.52.
In the case of A64U A138C, the self-cleavage amounted to 0.64.
As for A67C U119C, the figure is 0.09; as for C66U U134C, 0.06; as for A65G G89C, 0.03.
For A65G G89A the value was 0.04; for A65U U91C, 0.08.
As for A65U U91G, the figure is 0.06; as for A65U U104C, 0.52; as for A65G C76U, 0.02.
For the variant A67G A78G, the self-cleavage stood at 0.27.
As for A64G A79U, the figure is 0.34; as for A65U U115C, 0.26; as for A64G U81A, 0.34.
For A65U A117G the value was 0.24; for A64G A142G, 0.25.
As for A67G U112A, the figure is 0.53; as for A67G U112C, 0.39; as for A65G C68A, 0.04.
In the case of A64U A107G, the self-cleavage was 0.45.
For A65U G88U the value was 0.02; for A65G C71U, 0.03.
